The text below walks through data of paper PMC3856898 (FEBS letters, 2013).

The target in experiment [1] is T1, Nrp1 cytoplasmic domain (UniProt P97333 880-923). Description: SPR. A general note: In SPR one partner is held on a chip, and binding of the other changes the refractive index at the surface.
The target of experiment [2] is T1, Nrp1 cytoplasmic domain. Description: ITC. In general terms: ITC needs no label: the signal is the heat of the interaction.

Values joined by “and” are separate entries in the source; they are usually repeats but may differ in a detail not shown here. Identical values can stand only once.

T1 sequence (P97333 880-923): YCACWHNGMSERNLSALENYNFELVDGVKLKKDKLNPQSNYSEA

B1: FlnA repeats 23-24 (domain or fragment)
chain: GHGGDPGLVSAYGAGLEGGVTGNPAEFVVNTSNAGAGALSVTIDGPSKVKMDCQECPEGYRVTYTPMAPGSYLISIKYGGPYHIGGSPFKAKVTGPRLVSNHSLHETSSVFVDSLTKATCAPQHGAPGPGPADASKVVAKGLGLSKAYVGQKSSFTVDCSKAGNNMLLVGVHGPRTPCEEILVKHVGSRLYSVSYLLKDKGEYTLVVKWGDEHIPGSPYRVVVP
Regarding B1, the Kd (commonly the free concentration of one partner at which half of the binding sites on the other are occupied at equilibrium, for simple one-to-one binding) with Nrp1 cytoplasmic domain [1] was 9.6 ± 1.2 µM; in the experiment with Nrp1 cytoplasmic domain [2], 12.1 µM and 12.9 µM.
